Reference: IntAct's records for PubMed 16432186

B1: Beta-arrestin-1 (Homo sapiens), P49407-1 (parent)
chain: MGDKGTRVFKKASPNGKLTVYLGKRDFVDHIDLVDPVDGVVLVDPEYLKERRVYVTLTCAFRYGREDLDVLGLTFRKDLFVANVQSFPPAPEDKKPLTRLQERLIKKLGEHAYPFTFEIPPNLPCSVTLQPGPEDTGKACGVDYEVKAFCAENLEEKIHKRNSVRLVIRKVQYAPERPGPQPTAETTRQFLMSDKPLHLEASLDKEIYYHGEPISVNVHVTNNTNKTVKKIKISVRQYADICLFNTAQYKCPVAMEEADDTVAPSSTFCKVYTLTPFLANNREKRGLALDGKLKHEDTNLASSTLLREGANREILGIIVSYKVKVKLVVSRGGLLGDLASSDVAVELPFTLMHPKPKEEPPHREVPENETPVDTNLIELDTNDDDIVFEDFARQRLKGMKDDKEEEEDGTGSPQLNNR

Variants of: B1
Settings: with src_human SRC

effect of a mutation on the interaction	Variant
disrupting interaction strength	S412D
